Assay results as given in publication PMC12862363, “AURKB-driven dissolution of CIZ1–RNA assemblies from the inactive X chromosome in mitosis” (Nucleic Acids Research, 2026).

Legend:
C179DDD (Homo sapiens) = test: EMSA; details: 0.66 nM RNA; yeast tRNA 0.1 mg/ml; 10 mM Tris-HCl pH 7, 30 mM NaCl, 2.5 mM MgCl2, 0.1% IGEPAL CA-630, 0.1 mg/ml yeast tRNA, 1.5% RNaseOUT, 0.2 mM EDTA, 0.2 mM DTT, 30 C 20 min; 0.8% agarose/TBE …
C179Δtail (Homo sapiens) = test: EMSA; details: 0.66 nM RNA; yeast tRNA 0.1 mg/ml; 10 mM Tris-HCl pH 7, 30 mM NaCl, 2.5 mM MgCl2, 0.1% IGEPAL CA-630, 0.1 mg/ml yeast tRNA, 1.5% RNaseOUT, 0.2 mM EDTA, 0.2 mM DTT, 30 C 20 min; 0.8% agarose/TBE …

Work on Xist repeat E RNA probe yielded a binding signal (% probe shifted at 5 µM protein) (C179DDD (Homo sapiens)) of 54 and a binding signal (% probe shifted at 5 µM protein) (C179Δtail (Homo sapiens)) of 2.
